Test in all cases: two-hybrid library CCNG1;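 further: natural log of median RNA to DNA barcode read ratio; higher means stronger binding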
The target in one assay is T1, 4H3185-bA.
T1 chain: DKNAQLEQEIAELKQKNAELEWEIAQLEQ

A further assay has as its target T2, 4H331-bA.
T2 chain: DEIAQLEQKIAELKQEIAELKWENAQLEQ

The next assay deals with T3, 4H3354-bA.
T3 chain: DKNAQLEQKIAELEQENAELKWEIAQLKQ

The target in the next assay is T4, 4H338-bA.
T4 chain: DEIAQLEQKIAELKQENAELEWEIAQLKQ

In a further assay the target is T5, 4H3427-bA.
T5 chain: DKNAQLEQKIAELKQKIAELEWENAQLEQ

The next assay concerns the target T6, 4H3782-bA.
T6 chain: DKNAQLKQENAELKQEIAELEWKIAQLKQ

In the next assay the target is T7, 4H3843-bA.
T7 chain: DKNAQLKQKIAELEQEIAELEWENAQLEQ

Another assay deals with T8, 4H3855-bA.
T8 chain: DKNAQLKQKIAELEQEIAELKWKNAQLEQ

A further assay has as its target T9, 4H4001-bA.
T9 chain: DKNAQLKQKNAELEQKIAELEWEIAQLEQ

A further assay concerns the target T10, 4H454-bA.
T10 chain: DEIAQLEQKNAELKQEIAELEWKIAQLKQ

The next assay has as its target T11, 4H568-bA.
T11 chain: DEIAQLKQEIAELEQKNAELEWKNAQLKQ

Another assay deals with T12, 4H607-bA.
T12 chain: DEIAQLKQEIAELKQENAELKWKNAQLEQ

The target of another assay is T13, 4H687-bA.
T13 chain: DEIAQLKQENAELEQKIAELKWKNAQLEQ

Another assay addresses T14, 4H717-bA.
T14 chain: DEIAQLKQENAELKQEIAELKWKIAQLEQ

The next assay has as its target T15, 4H72-bA.
T15 chain: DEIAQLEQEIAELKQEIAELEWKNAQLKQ

The target in another assay is T16, 4H754-bA.
T16 chain: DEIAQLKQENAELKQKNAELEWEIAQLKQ

The next assay concerns the target T17, 4H797-bA.
T17 chain: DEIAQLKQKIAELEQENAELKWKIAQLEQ

The next assay addresses T18, 4H883-bA.
T18 chain: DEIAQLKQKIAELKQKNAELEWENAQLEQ

For the next assay, the target named is T19, 4H908-bA.
T19 chain: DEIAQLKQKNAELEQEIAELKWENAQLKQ

The target in another assay is T20, 4H918-bA.
T20 chain: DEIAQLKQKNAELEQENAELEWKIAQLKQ

Another assay addresses T21, 4H953-bA.
T21 chain: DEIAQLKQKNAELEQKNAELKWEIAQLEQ

The next assay concerns the target T22, 4H967-bA.
T22 chain: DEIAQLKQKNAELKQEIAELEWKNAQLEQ

For a further assay, the target named is T23, P3A-bA.
T23 chain: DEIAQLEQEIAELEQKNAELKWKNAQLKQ

The target in a further assay is T24, P4A-bA.
T24 chain: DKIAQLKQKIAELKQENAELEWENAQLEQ

A further assay concerns the target T25, P5A-bA.
T25 chain: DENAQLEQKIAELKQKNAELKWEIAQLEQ

The target in a further assay is T26, P6A-bA.
T26 chain: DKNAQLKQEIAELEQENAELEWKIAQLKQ

In the next assay the target is T27, P7A-bA.
T27 chain: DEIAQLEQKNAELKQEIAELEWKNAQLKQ

The next assay concerns the target T28, P8A-bA.
T28 chain: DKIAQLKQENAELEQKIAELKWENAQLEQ

In a further assay the target is T29, P9A-bA.
T29 chain: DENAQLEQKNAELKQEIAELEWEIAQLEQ

Take DKNAQLEQEIAELKQKNAELEWEIAQLEQ [4H3185-bA]: the interaction score with 4H3185-bA was -0.903; with 4H331-bA it was -1.49; with 4H3354-bA, -1.03; in the assay with 4H338-bA it was -1.39; with 4H3427-bA, -0.483; with 4H3782-bA it was -1.06. For the same molecule, the interaction score with 4H3843-bA is -0.572; in the assay with 4H3855-bA, -0.974; with 4H4001-bA, -0.835; with 4H454-bA, -1.66; in the assay with 4H568-bA, -1.72; with 4H607-bA, -1.07. Moreover, the interaction score was -0.744 in the assay with 4H687-bA; -1.46 with 4H717-bA; -1.82 with 4H72-bA; -0.86 with 4H754-bA; -1.99 with 4H797-bA; -1.49 with 4H883-bA. Further, the interaction score with 4H908-bA was -1.86; with 4H918-bA, -1.76; in the assay with 4H953-bA, -1.76; with 4H967-bA it was -0.96; with P3A-bA it was -0.564.

With DEIAQLEQEIAELEQKNAELKWKNAQLKQ [P3A-bA], the interaction score is -1.07 in the assay with P3A-bA; 2.18 with P4A-bA; -0.684 with P5A-bA; 1.19 with P6A-bA; -1.05 with P7A-bA; 0.146 in the assay with P8A-bA. The molecule also gave an interaction score with P9A-bA of 0.237.

DKIAQLKQKNAELKQKNAELKWKIAQLKQ [P2A-bA]: the interaction score in the assay with P3A-bA is -0.686; with P4A-bA, 0.0163; with P5A-bA, -0.638; in the assay with P6A-bA, 0.426; with P7A-bA it was -0.916; in the assay with P8A-bA it was -0.64. The same molecule gave an interaction score with P9A-bA of 0.702.

The record behind these values is paper PMC10397247.
